Measurements as given in paper PMC9122207, “PTEN differentially regulates endocytosis, migration, and proliferation in the enteric protozoan parasite Entamoeba histolytica” (PLoS Pathogens, 2022).

Legend:
Experiment in all cases: malachite green phosphate release, Lineweaver-Burk
Assay type in all cases: biochemical, Entamoeba histolytica
Conditions in all cases: 100 mM MOPS pH 6.0, 37°C, 40 min, di-C8 lipid
[1] = test system: CCCCCCCC(=O)OC[C@H](COP(=O)(O)O[C@@H]1[C@H](O)[C@H](OP(=O)(O)O)[C@@H](O)[C@H](OP(=O)(O)O)[C@H]1O)OC(=O)CCCCCCC
Description: (§1) malachite green phosphate release, Lineweaver-Burk on EhPTEN1

[2] = test system: CCCCCCCC(=O)OC[C@H](COP(=O)(O)O[C@H]1[C@H](O)[C@@H](O)[C@H](OP(=O)(O)O)[C@@H](OP(=O)(O)O)[C@H]1O)OC(=O)CCCCCCC
Description: as §1

[3] = test system: CCCCCCCC(=O)OC[C@H](COP(=O)(O)O[C@H]1[C@H](O)[C@@H](OP(=O)(O)O)[C@H](OP(=O)(O)O)[C@@H](OP(=O)(O)O)[C@H]1O)OC(=O)CCCCCCC
Description: as §1

EhPTEN1 (Entamoeba histolytica HM-1:IMSS)
Km [1]: 161 ± 20.1 µM | Vmax [1]: 0.0084 µmol/min/mg | kcat [1]: 0.0025 ± 0.000167 s⁻¹ | Km [2]: 292 ± 18.8 µM | Vmax [2]: 0.00602 µmol/min/mg | kcat [2]: 0.00183 ± 0.000333 s⁻¹ | Km [3]: 92.5 ± 4.72 µM | Vmax [3]: 0.0169 µmol/min/mg | kcat [3]: 0.00517 ± 0.0005 s⁻¹
